# Results: paper PMC11919473, “Synthesis and characterisation of DOTA‐kisspeptin‐10 as a potential gallium‐68/lutetium‐177 pan‐tumour radiopharmaceutical” (Journal of Neuroendocrinology, 2025)
# Like-named read-outs stand apart in the source and are kept apart here.
# Columns and labels:
# physchem = format: physicochemical
# Description: The method published by Jain and co‐workers was used.[21] Briefly, 100 μL (± 100 MBq) of the labelled [^68Ga]Ga‐DOTA‐KP10 was dispersed in a 1‐mL phosphate‐buffered saline (PBS) and octanol mixture (0.9:1). The samples were vortexed (1 min) and then centrifuged (5 min, 6000 rpm). A sample (200 μL) from each phase was taken, and the activity was measured in the Hidex AMG automated gamma counter (Turku, Finland). The partition coefficient (log P) was expressed as the logarithm of the ratio of counts from the n‐octanol fraction versus that of the aqueous fraction.[21], [22]
# [1] = format: in vitro ADME, human
# Description: The red blood cell (RBC) binding assay was performed by the method described by Shi and co‐workers.[22] In brief, radiolabelled [^68Ga]Ga‐DOTA‐KP10 (740 kBq in 10 μL) was mixed with 100 μL of human blood drawn up in the presence of heparin. The mixture was incubated in a shaking incubator at 37°C. Samples ([…]) were collected at two time points, 10 and 30 min. Plasma and blood cells were separated by centrifugation (2000 rpm, 5 min). The plasma was removed, and the blood cells were washed twice with 500 μL of normal saline (0.9% NaCl) that was then added to the plasma fraction. The amount (%) of labelled compound that was bound to the RBC was determined by the ratio of distribution between the plasma and blood cell fraction.[22]
# [2] = format: in vitro ADME
# Description: The protein binding assay was done as described by Mdlophane et al.[18] In brief, [^68Ga]Ga‐DOTA‐KP10 was incubated for 0, 60 and 120 min in serum at 37°C. Proteins were precipitated in ice‐cold acetonitrile (500 μL) and centrifuged (5000 rpm, 10 min). The supernatant was removed, and the protein pellet was washed with acetonitrile (250 μL). The washed protein pellets and supernatants were measured in an automated gamma‐counter (Hidex, Finland).
# [3] = format: in vitro ADME, human; remark: listed apart in the source
# Description: Stability studies were performed in triplicate using [^68Ga]Ga‐DOTA‐KP10 spiked human serum, plasma or whole blood (samples were removed at 5, 60 and 120 min with incubation at 37°C). […] The samples taken (200 μL) at the selected time points were treated with ice‐cold acetonitrile (500 μL) and thereafter filtered with a 0.22‐μm filter to remove all residual proteins in the extract. This sample was then analysed by the HPLC method as described under Section 2.2.4.
# [4] = design: species or system Sprague–Dawley rats; settings: rat, in vivo, iv
# Source text: All procedures followed during the animal studies adhered to institutional and South African national guidelines for the care and use of laboratory animals (SANS10386:2021). Ethical approval for the study was obtained from the Research Animal Ethics Committee of North-West University (NWU-00560-19-S5) and the University of Pretoria (149/2019), South Africa. The animals were provided by the Department of Science and Technology/North-West University Preclinical Drug Development Platform (PCDDP) Vivarium. The study was conducted at the Preclinical Imaging Facility (PCIF) of the Nuclear Medicine Research Infrastructure (NuMeRI), South Africa. Five healthy Sprague-Dawley rats (male, 6-8 weeks, ±200 g) were enrolled into the study. All animals had ad libitum access to a conventional rodent diet and water. Animals were maintained on a 12-h artificial day/night cycle and supplied with corn cob bedding and nesting material for cage enrichment. […] Hybrid images were viewed and analysed using the InterviewFusionTM software (Mediso, Hungary). A qualitative visual analysis was done on all acquisitions, and blood standardized uptake value values were calculated. […] Data collected from the ex vivo biodistribution were evaluated using the Kruskal-Wallis analysis. […] Organs were measured for activity and expressed as the percentage injected dose per gram of the organ (%ID/g). […]
# in vivo = assay: in vivo; design: species or system Sprague–Dawley rats; settings: rat; for tissue uptake at 2.5 h: male, Sprague-Dawley, iv, 18.8 MBq, total radioactivity
# Description: After the final image was acquired (150 min postinjection), the animals were euthanised and ex vivo biodistribution was performed. Euthanasia was performed by an overdose of isoflurane (without waking up post‐scan) followed by decapitation. A quantitative analysis of the radioactivity biodistribution and uptake in various organs of the rats was conducted. Following micro‐PET/CT imaging, the anesthetised animals were euthanised by decapitation and blood was collected into pre‐weighed BD SST vacutainer tubes (thermos Fisher Scientific, Johannesburg, South Africa). The blood samples were centrifuged (6000 rpm, 5 min) to separate the serum from the blood cells. The blood and serum along with the other dissected tissues and organs (heart, liver, spleen, intestines, testes, stomach, lungs and brain) were weighed, and the radioactivity was measured in the automated gamma counter (Hidex AMG, Turku, Finland). The radioactivity per organ was expressed as the percentage injected dose per gram of the organ (% ID/g). […] Data collected from the ex vivo biodistribution were evaluated using the Kruskal–Wallis analysis. A chi‐squared that was less than the H‐statistic was used to indicate significant differences between the concentrations within regions of interest. Organs were measured for activity and expressed as the percentage injected dose per gram of the organ (%ID/g). A multipoint regression model (exponential fit) was used to estimate blood‐half life.
# KISS1R = target: T1, KISS1R (Homo sapiens, UniProt Q969F8); assay: Inositol phosphate (IP) accumulation assay in HEK 293‐T cells transiently transfected with KISS1R; format: cell-based; settings: for EC50: HEK 293‐T cells expressing KISS1R
# T1 construct: expressed in transfected cells; host or cells: HEK 293-T cells, transient transfection with XtremeGene HP
# T1 sequence (Q969F8 whole entry): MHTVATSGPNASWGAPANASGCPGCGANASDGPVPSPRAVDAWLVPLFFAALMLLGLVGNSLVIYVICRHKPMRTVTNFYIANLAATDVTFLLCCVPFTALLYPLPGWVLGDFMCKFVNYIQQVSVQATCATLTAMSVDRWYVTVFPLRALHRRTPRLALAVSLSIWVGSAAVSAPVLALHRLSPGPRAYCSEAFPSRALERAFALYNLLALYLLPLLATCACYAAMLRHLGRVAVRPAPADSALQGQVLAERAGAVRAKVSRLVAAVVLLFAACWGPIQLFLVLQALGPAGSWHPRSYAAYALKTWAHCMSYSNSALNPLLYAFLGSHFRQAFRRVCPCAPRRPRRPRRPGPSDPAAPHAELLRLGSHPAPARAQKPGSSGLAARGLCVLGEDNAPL
# Description: HEK 293‐T cell culturing and the IP accumulation assay were performed as described by Newton et al.[15], [16] The IP assay measures the response of the cells to ligands that is a measure of the binding affinity and stimulation of intracellular signalling. This assay was applied to determine whether the novel ligand retained the same or improved activity as KP10.
# HEK 293‐T cells were cultured and maintained using DMEM (10% FBS) media supplemented with Glutamax at 37°C, 5% CO2 and 95% relative humidity. HEK 293‐T cells were passaged at 90% confluency using Trypsin. HEK 293‐T cells were plated out into 24‐well plates at a density of 1 × 10^5 cells/well. Each well was pre‐coated with Matrigel at a 1:30 dilution to ensure adhesion to the well. KISS1R gene construct was transiently transfected into the HEK 293‐T cells at a concentration of 10 ng/μL of KISS1R using XtremeGene HP (1:2 ratio) DNA transfection reagent. Cells were incubated overnight at 37°C at 5% CO2.
# For the IP assay, the HEK 293‐T cells were incubated with myoinositol‐[2‐3H] […] The radiolabelled IPs were separated using a Dowex 100–200 mesh resin ion‐exchange chromatography, and the radioactivity (cpm) was measured using liquid scintillation (Packard Tricarb 2100 TR liquid scintillation analyser TRI‐CARB 4910TR 110 V Liquid Scintillation Counter, Perkin‐Elmer, USA). […] The results were analysed by doing sigmoidal regression to determine the EC 50 and then compared with their respective normalised ligand signalling assay.
# The accumulation of the IPs measured for cells transfected with XtremeGene without KISS1R and treated with maximal stimulation of KP10 (1 × 10^−6 M) was subtracted from the measured accumulation of cells stimulated with DOTA‐KP10 over a dose range ([…]–1 × 10^−6 M) that were transfected with KISS1R in the same assay.
# For the IP assay, the data were fitted using a nonlinear regression to determine Emax and EC50. Data collected from the ex vivo biodistribution were evaluated using the Kruskal–Wallis analysis. […]
structure (smiles),measurement,setting,value
"CC(C)C[C@H](NC(=O)CNC(=O)[C@H](Cc1ccccc1)NC(=O)[C@H](CO)NC(=O)[C@H](CC(N)=O)NC(=O)[C@H](Cc1c[nH]c2ccccc12)NC(=O)[C@H](CC(N)=O)NC(=O)[C@H](Cc1ccc(O)cc1)NC(=O)CN1CCN(CC(=O)O)CCN(CC(=O)O)CCN(CC(=O)O)CC1)C(=O)N[C@@H](CCCNC(=N)N)C(=O)N[C@@H](Cc1ccccc1)C(N)=O [[^68Ga]Ga‐DOTA‐KP10, metal not drawn]",logD,physchem,-2
same,Binding to red blood cells at 10 min,[1],6.72 ± 0.37%
same,Binding to red blood cells at 30 min,[1],6.35 ± 2.7%
same,Radioactivity bound to plasma proteins after initiating the incubation (0 min),[2],28.2 ± 1.35%
same,Radioactivity bound to plasma proteins at 2 h,[2],67.99 ± 3.56%
same,Stability in plasma at 5 min,[3],formation of a degradation product
same,Stability in whole blood at 5 min,[3],formation of a degradation product
same,Accumulation in the brain or lungs on micro‐PET/CT,[4],no noticeable accumulation
same,Uptake in the hypothalamus on micro‐PET/CT images,[4],No uptake was observed
same,tissue uptake at 2.5 h,in vivo; Ex vivo radioactivity in kidneys,1.5 ± 0.2 %ID/g
same,tissue uptake at 2.5 h,in vivo; Ex vivo radioactivity in organs other than kidneys,< 0.5 %ID/g
same,Serum:blood ratio,in vivo,sixfold to eightfold
"CC(C)C[C@H](NC(=O)CNC(=O)[C@H](Cc1ccccc1)NC(=O)[C@H](CO)NC(=O)[C@H](CC(N)=O)NC(=O)[C@H](Cc1c[nH]c2ccccc12)NC(=O)[C@H](CC(N)=O)NC(=O)[C@@H](N)Cc1ccc(O)cc1)C(=O)N[C@@H](CCCNC(=N)N)C(=O)N[C@@H](Cc1ccccc1)C(N)=O [KP10, kisspeptin‐10]",EC50,"KISS1R; 1 h ligand incubation at 37°C, 10 mM LiCl, mean ± SEM, N = 4, read-out: EC50 Mean nM ± SEM (N = 4)",1.87 ± 0.095 nM
CC(C)C[C@H](NC(=O)CNC(=O)[C@H](Cc1ccccc1)NC(=O)[C@H](CO)NC(=O)[C@H](CC(N)=O)NC(=O)[C@H](Cc1c[nH]c2ccccc12)NC(=O)[C@H](CC(N)=O)NC(=O)[C@H](Cc1ccc(O)cc1)NC(=O)CN1CCN(CC(=O)O)CCN(CC(=O)O)CCN(CC(=O)O)CC1)C(=O)N[C@@H](CCCNC(=N)N)C(=O)N[C@@H](Cc1ccccc1)C(N)=O [DOTA‐KP10],EC50,"KISS1R; four independent experiments, read-out: EC50",3.99 nM
same,Emax,"KISS1R; HEK-293T, KP10 maximal response set at 100%, read-out: Maximal response as % of that of KP10",97.8%
